Data on three substances can be found in patent US6495346.

Assay in all cases: cell-based or functional assay
The target in assay [1] is LCK-Gal4 (UniProt P04386).
The target in assay [2] is m-fos-Gal4 (SV40).
Assay [3] has as its target wt-fos-Gal4 (SV40).

Sequence of m-jun-VP16 (P06492 411-455, tags or fused parts left off): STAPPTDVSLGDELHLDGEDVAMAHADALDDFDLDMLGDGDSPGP
Sequence of wt-jun-VP16 (P06492 411-455, tags or fused parts left off): as above
Sequence of CD4-VP16 (P06492 whole entry): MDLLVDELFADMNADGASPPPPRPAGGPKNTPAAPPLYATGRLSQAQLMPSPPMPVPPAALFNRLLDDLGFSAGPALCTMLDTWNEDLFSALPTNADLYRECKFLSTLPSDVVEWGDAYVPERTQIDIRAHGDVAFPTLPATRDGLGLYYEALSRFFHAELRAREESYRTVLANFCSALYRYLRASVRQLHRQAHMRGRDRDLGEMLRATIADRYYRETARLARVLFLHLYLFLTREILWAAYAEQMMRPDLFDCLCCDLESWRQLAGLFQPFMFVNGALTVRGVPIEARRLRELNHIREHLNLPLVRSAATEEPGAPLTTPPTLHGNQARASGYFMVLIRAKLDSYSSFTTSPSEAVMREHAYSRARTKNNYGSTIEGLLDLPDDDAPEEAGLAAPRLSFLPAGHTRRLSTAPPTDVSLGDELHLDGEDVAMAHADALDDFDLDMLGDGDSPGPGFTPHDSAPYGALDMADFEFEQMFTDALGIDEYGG

In assay [1], CD4-VP16 (from UniProt P06492 406-488) registered a Luciferase values (RLU), MeWo cells, G0/G1-synchronized cells, 10xBS Gal4-SV40 promoter (Tyr-LCK-Gal4-CycACD4-VP16) of 5990 RLU and a Luciferase values (RLU), MeWo cells, proliferating cells, 10xBS Gal4-SV40 promoter (Tyr-LCK-Gal4-CycACD4-VP16) of 72400 RLU.
In assay [2], “wt-jun-VP16 (from UniProt P06492 411-455; P05412 276-312)” yielded a Luciferase values (RLU), MeWo cells, G0/G1-synchronized cells, 10xBS Gal4-SV40 promoter of 283 RLU and a Luciferase values (RLU), MeWo cells, proliferating cells, 10xBS Gal4-SV40 promoter of 284 RLU.
For “m-jun-VP16 (from UniProt P06492 411-455; P05412 276-312)”, in assay [2], the Luciferase values (RLU), MeWo cells, G0/G1-synchronized cells, 10xBS Gal4-SV40 promoter stood at 271 RLU; the Luciferase values (RLU), MeWo cells, G0/G1-synchronized cells, 10xBS Gal4-SV40 promoter, both subunits on one plasmid (Tyr-m-fos-CycA-m-jun) was determined as 12700 RLU; the Luciferase values (RLU), MeWo cells, proliferating cells, 10xBS Gal4-SV40 promoter is 18300 RLU; the Luciferase values (RLU), MeWo cells, proliferating cells, 10xBS Gal4-SV40 promoter, both subunits on one plasmid (Tyr-m-fos-CycA-m-jun) worked out at 1.02e+06 RLU. Moreover, in assay [3], the Luciferase values (RLU), MeWo cells, G0/G1-synchronized cells, 10xBS Gal4-SV40 promoter stood at 224 RLU and the Luciferase values (RLU), MeWo cells, proliferating cells, 10xBS Gal4-SV40 promoter came to 290 RLU.
